Test results taken from paper PMC10068178.

Molecular target: α-synuclein aggregates (small fibrils, oligomeric/protofibrillary species) formed in the aggregation reaction (UniProt P37840)

diagnostic α-syn SAA on PD CSF, increase of the time to reach the fluorescence threshold of 5000 a.u. (TTT) against neat samples, HDL at 2X (~ 24%) and 5X the CSF physiological concentration: 55%
Substance: human serum high-density lipoprotein (HDL) (complex)
